From the supplement of paper PMC7877785
± gives the uncertainty stated by the source.

Assay: self-splicing fitness, log relative to wild type (ln ratio); higher = more splicing; Tetrahymena group I intron in knt gene, E. coli kanamycin selection, DiMSum; sequences stand for … in CUCUCU…GGAGGGAAAAGUUAUCAGGCAUGCACCUGGUAGCUAGUCUUUAAACCAAUAGAUUGCAUCGGUUUAAAAGGCAAGACCGUCAAAUUGCGGGAAAGGGGUCAACAGCCGUUCAGUACCAAGUCUCAGGGGAAACUUUGAGAUGGCCUUGCAAAGGGUAUGGUAAUAAGCUGACGGACAUGGUCCUAACCACGCAGCCAAGUCCUAAGUCAACAGAUCUUCUGUUGAUAUGGAUGCAGUUCACAGACUAAAUGUCGGUCGGGGAAGAUGUAUUCUUCUCAUAAGAUAUAGUCGGACCUCUCCUUAAUGGGAGCUAGCGGAUGAAGUGAUGCAACACUGGAGCCGCUGGGAACUAAUUUGUAUGCGAAAGUAUAUUGAUUAGUUUUGGAGUACUCGUGGUCG
In short: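 DiMSum derived fitness as the error-weighted combination of fold changes across replicates, kanamycin versus no kanamycin, normalised to wild type. E. coli BL21(DE3) held the library, which randomised all eight P1ex-region intron nucleotides within the knt kanamycin-resistance gene on pET-22b(+). Six replicate transformations grew overnight at 37°C or 30°C on LB agar with or without 25 μg/mL kanamycin, also containing 100 μg/mL carbenicillin, 50 μM IPTG and 0.2% rhamnose, and pooled colonies were amplicon-sequenced on an Illumina HiSeq 2500.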

Row | Sequence | self-splicing fitness (ln) (30 °C) | self-splicing fitness (ln) (37 °C)
1 | GUCUAGCAAUAUUACGCAUU | 0.0861 ± 0.1 | 0.379 ± 0.092
2 | AACGAGCAAUAUUACGUCCU | -1.04 ± 0.079 | -0.143 ± 0.095
3 | CCGCAGCAAUAUUACGCGUA | -2.58 ± 0.16 | -0.978 ± 0.11
4 | UGCUAGCAAUAUUACGCAGU | -3.21 ± 0.31 | -2.51 ± 0.43
5 | GCAUAGCAAUAUUACGACAA | -2.27 ± 0.19 | -0.595 ± 0.13
6 | ACAGAGCAAUAUUACGAGUG | -4.35 ± 0.37 | -3.43 ± 0.29
7 | UCACAGCAAUAUUACGGGAC | -2.77 ± 0.21 | -1.76 ± 0.18
8 | CAUAAGCAAUAUUACGGGCG | -0.054 ± 0.08 | 0.166 ± 0.092
9 | UCAGAGCAAUAUUACGUGAU | -3.03 ± 0.32 | -2.94 ± 0.26
10 | CCCAAGCAAUAUUACGCGAG | -3.22 ± 0.24 | -2.58 ± 0.2
11 | UUAAAGCAAUAUUACGCACC | -0.965 ± 0.33 | -0.676 ± 0.44
12 | UACCAGCAAUAUUACGGGAA | -0.38 ± 0.087 | -0.618 ± 0.08
13 | GGCCAGCAAUAUUACGGGAG | -2.14 ± 0.13 | -0.796 ± 0.12
14 | UGUAAGCAAUAUUACGAUGA | -0.986 ± 0.098 | -0.393 ± 0.13
15 | ACGAAGCAAUAUUACGCUCU | -1.35 ± 0.094 | -0.15 ± 0.1
16 | CGCUAGCAAUAUUACGGUUG | -2.07 ± 0.055 | -0.803 ± 0.072
17 | GCGUAGCAAUAUUACGGCAA | 0.755 ± 0.46 | -1.01 ± 0.27
18 | GCUUAGCAAUAUUACGUAUA | -1.24 ± 0.072 | -1.15 ± 0.094
19 | CACGAGCAAUAUUACGUAGC | -2.94 ± 0.24 | -3.31 ± 0.3

Row | Sequence | self-splicing fitness (ln) (30 °C) | self-splicing fitness (ln) (37 °C)
20 | AUGCAGCAAUAUUACGGCGU | -4.06 ± 0.24 | -1.76 ± 0.2
21 | UAUAAGCAAUAUUACGAGAG | -3.52 ± 0.38 | -2.52 ± 0.27
22 | UGAAAGCAAUAUUACGGAGC | -3.81 ± 0.37 | -2.81 ± 0.26
23 | UAGCAGCAAUAUUACGUGGA | -2.16 ± 0.12 | -1.46 ± 0.11
24 | CGUAAGCAAUAUUACGAUGA | -3.44 ± 0.34 | –
25 | UGAAAGCAAUAUUACGUCGU | -4.87 ± 0.36 | -1.38 ± 0.12
26 | CUAGAGCAAUAUUACGGCAU | -3.75 ± 0.19 | -2.75 ± 0.28
27 | AGUAAGCAAUAUUACGGUAG | -3.89 ± 0.23 | -3.44 ± 0.29
28 | GACCAGCAAUAUUACGUCCG | -4.09 ± 0.27 | -2.12 ± 0.17
29 | GGCGAGCAAUAUUACGAAAC | -2.42 ± 0.15 | -0.0615 ± 0.14
30 | GACCAGCAAUAUUACGUACA | -0.568 ± 0.067 | 0.0774 ± 0.083
31 | UGACAGCAAUAUUACGGGGA | -1.25 ± 0.087 | -1.61 ± 0.12
32 | UCGAAGCAAUAUUACGUCAU | -2.62 ± 0.15 | -2.58 ± 0.21
33 | UACGAGCAAUAUUACGCGCA | -1.42 ± 0.19 | -1.03 ± 0.17
34 | CCACAGCAAUAUUACGCCCC | -2.07 ± 0.27 | -2.2 ± 0.4
35 | GUUUAGCAAUAUUACGGAAC | -2.74 ± 0.39 | –
36 | UGUAAGCAAUAUUACGGCUU | -1.01 ± 0.12 | -1.15 ± 0.15
37 | UCCCAGCAAUAUUACGUUCG | -3.65 ± 0.2 | -2.96 ± 0.27
38 | CAGAAGCAAUAUUACGUCGA | -2.1 ± 0.13 | -0.369 ± 0.1
